In paper PMC10524338 (Structure (London, England : 1993), 2023):
Where a chain is given by its changes, count along the chain named. Names may count otherwise. Each block holds one binder with its values, some of them ahead of it.

Columns and labels:
[1] = molecular target: T1, Karyopherin-β2 (Kapβ2), wild type, GST tag removed (UniProt Q92973-2 1-890); experiment: ITC
T1 sequence (looked up): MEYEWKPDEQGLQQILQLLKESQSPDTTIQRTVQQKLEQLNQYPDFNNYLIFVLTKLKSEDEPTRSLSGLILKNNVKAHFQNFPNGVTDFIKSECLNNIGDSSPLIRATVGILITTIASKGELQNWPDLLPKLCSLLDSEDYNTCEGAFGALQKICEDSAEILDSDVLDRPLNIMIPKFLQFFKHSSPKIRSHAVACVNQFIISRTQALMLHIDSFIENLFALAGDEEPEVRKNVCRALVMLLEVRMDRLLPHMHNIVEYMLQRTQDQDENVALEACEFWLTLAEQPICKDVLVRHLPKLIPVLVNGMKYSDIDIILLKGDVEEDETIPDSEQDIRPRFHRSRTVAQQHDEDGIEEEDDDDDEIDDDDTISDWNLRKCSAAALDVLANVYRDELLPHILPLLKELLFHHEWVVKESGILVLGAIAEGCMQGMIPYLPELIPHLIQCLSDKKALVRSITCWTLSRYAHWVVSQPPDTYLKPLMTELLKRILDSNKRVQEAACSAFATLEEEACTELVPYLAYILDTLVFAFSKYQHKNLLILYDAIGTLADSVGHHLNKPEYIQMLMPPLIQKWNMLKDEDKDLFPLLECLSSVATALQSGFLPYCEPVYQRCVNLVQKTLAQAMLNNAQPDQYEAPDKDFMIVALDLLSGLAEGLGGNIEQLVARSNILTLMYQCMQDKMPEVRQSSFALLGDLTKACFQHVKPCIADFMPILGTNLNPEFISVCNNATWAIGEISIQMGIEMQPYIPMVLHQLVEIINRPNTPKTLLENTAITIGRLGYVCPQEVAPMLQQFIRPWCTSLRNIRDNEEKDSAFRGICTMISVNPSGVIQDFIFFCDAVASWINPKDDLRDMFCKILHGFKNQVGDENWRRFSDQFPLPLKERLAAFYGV

[2] = molecular target: T2, Kapβ2(W373A), GST tag removed (UniProt Q92973-2 1-890, W373A); experiment: ITC
T2 sequence (looked up): T1 sequence (looked up) with W373A

[3] = molecular target: T1, Karyopherin-β2 (Kapβ2), wild type, GST …; experiment: cryo-EM structure
GST-Kapβ2 = molecular target: T3, GST-Kapβ2 (UniProt Q92973-2 1-890); experiment: pull-down
T3 sequence (looked up): T1 sequence (looked up)

- Kd [1]: 0.05 µM
- Kd [2]: 6.1 µM
B1: MBP-HNRNPH2(103-225) WT (domain or fragment, UniProt P55795 103-225, looked up)
chain: NSPDTANDGFVRLRGLPFGCSKEEIVQFFSGLEIVPNGMTLPVDFQGRSTGEAFVQFASQEIAEKALKKHKERIGHRYIEIFKSSRAEVRTHYDPPRKLMAMQRPGPYDRPGAGRGYNSIGRG

- binding result [3]: binds
B2: HNRNPH2(103-225) as in the cryo-EM sample (domain or fragment, UniProt P55795 103-225, looked up)
chain: B1 chain
modifications: mildly cross-linked to Kapβ2 with 0.025% glutaraldehyde

- binding result (GST-Kapβ2): binds
B3: MBP-HNRNPH2(103-225) R212K (domain or fragment, UniProt P55795 103-225, looked up)
chain: B1 chain with R110K

- binding result (GST-Kapβ2): binds
B4: MBP-HNRNPH2(103-225) P213A (domain or fragment, UniProt P55795 103-225, looked up)
chain: B1 chain with P111A

- Kd [1]: 5.2 µM
B5: MBP-HNRNPH2(103-225) R206W (domain or fragment, UniProt P55795 103-225, looked up)
chain: B1 chain with R104W

- Kd [1]: 3.2 µM
B6: MBP-HNRNPH2(103-225) R212A (domain or fragment, UniProt P55795 103-225, looked up)
chain: B1 chain with R110A

- Kd [1]: 3.6 µM
B7: MBP-HNRNPH2(103-225) R206Q (domain or fragment, UniProt P55795 103-225, looked up)
chain: B1 chain with R104Q

- Kd [1]: 16.3 µM
B8: MBP-HNRNPH2(103-225) P209L (domain or fragment, UniProt P55795 103-225, looked up)
chain: B1 chain with P107L

- Kd [1]: 0.009 µM
- Kd [2]: 0.0045 µM
Binder: ERPAQNEKRKEKNIKRGGNRFEPYANPTKR (domain or fragment, UniProt P52272 41-70, looked up) [MBP-HNRNPM PY-NLS (41-70)]

- Kd [1]: 0.04 µM
Binder: EVRTHYDPPRKLMAMQRPGPYDRPGAGRGYNSIGRG (domain or fragment, UniProt P55795 190-225, looked up) [MBP-HNRNPH2 PY-NLS (190-225)]
